Patent publication US20200157180A1 (JIANGSU HENGRUI MEDICINE, published 2020)

Legend:
[1] = molecular target: T1, human TGF-β1 (human, UniProt P01137 279-390); assay: cell-based or functional assay
[2] = molecular target: human PD-L1 on CHO/PD-L1 cells (human, UniProt Q9NZQ7 19-290); assay: cell-based or functional assay
[3] = molecular target: T1, human TGF-β1; assay: ELISA, coated human TGF-β1 1 µg/ml, anti-human Fc-HRP, OD450
Experimental: a. 96-well plates were coated with 100 μl/well of human TGF-β1 (8915LC, CST) at a concentration of 1 μg/ml at 4° C. overnight.
d. The wells were washed 3 times with 250 μl 1×PBST, e. 100 μl of Anti-human Fc antibody-HRP (1:4000) was added to each well and incubated for 40 minutes at 37° C.

T1 sequence (P01137 279-390 limits assumed): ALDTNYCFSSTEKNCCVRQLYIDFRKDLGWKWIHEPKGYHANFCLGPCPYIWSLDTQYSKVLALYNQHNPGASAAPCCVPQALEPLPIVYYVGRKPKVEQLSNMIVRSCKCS
human PD-L1 on CHO/PD-L1 cells, sequence (Q9NZQ7 19-290): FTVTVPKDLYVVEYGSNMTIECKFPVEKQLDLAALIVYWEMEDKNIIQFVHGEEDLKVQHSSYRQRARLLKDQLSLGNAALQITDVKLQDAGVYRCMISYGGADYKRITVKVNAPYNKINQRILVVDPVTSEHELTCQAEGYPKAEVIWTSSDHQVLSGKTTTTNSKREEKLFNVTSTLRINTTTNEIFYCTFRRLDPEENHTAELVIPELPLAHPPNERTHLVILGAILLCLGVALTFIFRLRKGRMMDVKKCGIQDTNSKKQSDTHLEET

IC50, TGFβ-induced pSMAD3 reporter (luciferase) activity in HepG2 cells [1]: > 500 nM
EC50 (read off the curve) [2]: ~0.3 nM
binding result [3]: no binding (tested: Log(pM) 6 (10^6 pM))
B1: PD-L1 antibody (antibody, human IgG4 S228P, kappa, F234A L235A, V domains shown)
VH: QVQLVQSGAEVKKPGASVKVSCKASGYTFTSYWMHWVRQAPGQGLEWMGRIGPNSGFTSYNEKFKNRVTMTRDTSTSTVYMELSSLRSEDTAVYYCARGGSSYDYFDYWGQGTTVTVSS
VL: DIVLTQSPASLAVSPGQRATITCRASESVSIHGTHLMHWYQQKPGQPPKLLIYAASNLESGVPARFSGSGSGTDFTLTINPVEAEDTANYYCQQSFEDPLTFGQGTKLEIKR
notes: Humanized IgG4 with S228P, F234A, L235A; last heavy chain residue K mutated to A; also called anti-PD-L1 antibody; PD-L1 antibody heavy chain: IgG4(AA)(S228P)
